Laboratory results taken from patent publication US20040014209A1, “Compositions and methods for modulating cell differentiation” (priority 2002, published 2004).

How the values were obtained:
SP cells = test: FACS of Hoechst 33342 treated quail SP cells; assay type: cell-based; conditions: negative control in FACS sorting
Method: SP cells were isolated from quail by FACS isolation relying on Hoechst 33342 and propidium iodide to distinguish different cell populations. Cells were incubated in Hoechst 33342 at 37° C. for 60-90 minutes. Cells were then collected by centrifugation, washed in PBS and resuspended in a propidium iodide solution. As a negative control, a fraction of the primary cells were incubated in parallel with verapamil, which blocks Hoechst 33342 efflux. Sorting was performed on a FACS Advantage Plus flow cytometer and fluorescence of Hoechst 33342 and propidium iodide was measured on a linear scale (Goodell et al. (1996) J. Exp. Med. 183:1797; Goodell et al. (1997) Nat. Med. 3:1337 and Gussoni et al. (1999) Nature 401:390). The cells were then pelleted by centrifugation.

APMEE explants = test: APMEE explant culture, cardiac gene expression by RT-PCR; assay type: cell-based, chick; conditions: stage 9 APMEE explants; RCAS-Wnt-3a infection (n=24) or coculture with Rat-1/Wnt-1-HA cells (n=12)
stage 7 chick embryos = test: Cell pellet implantation into stage 7 chick embryos in New culture (heart looping, DiI tracing, in situ hybridization); assay type: in vivo; conditions: fibroblasts expressing Wnt-1 implanted into one side of heart-forming region, stage 7
[1] = tested on: presumptive heart field of chick embryos; test: Implantation of Wnt-expressing cell pellets into the precardiac region of embryos in New culture; assay type: in vivo; conditions: cell pellets implanted at stage 3+ to 4; in situ hybridization
Description: FIG. 15. Overexpression of Wnt genes blocks cardiogenesis in precardiac mesoderm. (A) Whole-mount in situ hybridization for Nkx-2.5 in chick embryos in which pellets of chick embryo dermal fibroblasts infected with either RCAS-mWnt-3a or control RCAS-AP were implanted into the precardiac region of embryos in New culture at stage 3^+ to 4. […] (B) Red line in A indicates the level of this section. […] (C) Ectopic Wnt expression suppresses cardiogenesis in anterior lateral plate mesoderm explants. Stage 5 anterior lateral plate mesoderm from the precardiac region was infected with either control virus (RCAS-GFP, lane 1; RCAS-AP, lane 3), or RCAS-Wnt-3a (lane 2) or RCAS-Wnt-8c (lane 4). Cultures were carried out in the presence of 200 ng/mL BMP-4 overnight followed by 48 h in 20 ng/mL BMP-4. Transcript levels were evaluated by RT-PCR.
As inhibition of Wnt signaling can induce cardiogenesis in the PLP mesoderm, we hypothesized that expression of Wnt signals in the heart field would have the opposite effect. To address this issue, we examined whether ectopic expression of Wnt-3a in the presumptive heart field affects the expression of Nkx-2.5 in vivo. […] However, these in vivo experiments affected all three germ layers. […]

Row | Molecule | Hoechst 33342 dye retention of SP cells (SP cells) | APMEE explants in which cardiogenesis was blocked (APMEE explants) [%] | Nkx-2.5 expression in heart-forming region (stage 7 chick embryos) | Nkx-2.5 expression in the presumptive heart field [1]
1 | COc1ccc(CCN(C)CCCC(C#N)(c2ccc(OC)c(OC)c2)C(C)C)cc1OC (stereo not shown) [verapamil] | blocks the channel(s) responsible for low dye retention | – | – | –
2 | Wnt-1: delivered by Rat-1 cells stably overexpressing Wnt-1 (protein, UniProt P04426 28-370, looked up) Proto-oncogene Wnt-1: ANSSGRWWGIVNIASSTNLLTDSKSLQLVLEPSLQLLSRKQRRLIRQNPGILHSVSGGLQSAVRECKWQFRNRRWNCPTAPGPHLFGKIVNRGCRETAFIFAITSAGVTHSVARSCSEGSIESCTCDYRRRGPGGPDWHWGGCSDNIDFGRLFGREFVDSGEKGRDLRFLMNLHNNEAGRTTVFSEMRQECKCHGMSGSCTVRTCWMRLPTLRAVGDVLRDRFDGASRVLYGNRGSNRASRAELLRLEPEDPAHKPPSPHDLVYFEKSPNFCTYSGRLGTAGTAGRACNSSSPALDGCELLCCGRGHRTRTQRVTERCNCTFHWCCHVSCRNCTHTRVLHECL | – | 50 | blocked subsequent expression of Nkx-2.5 | similarly extinguished endogenous Nkx-2.5 expression
